From the DeepSol protein solubility set

Experiment: soluble on expression in E. coli; label from the status in PepcDB or PDB records

| Sequence | soluble on expression in E. coli |
| --- | --- |
| MQILKAIGLLMEYPDDELWECRDEALTLIQHDAPMLADFTRELLYAPLLDKQAEWCEVFDRGRATSLLLFEHVHAESRDRGQAMVDLLSQYETVGLHLNCRELPDHLPLYLEYLSVLPEAEAREGLQNIAPILALLGGRLKQRGAPWYQLFDALLTLAGSTLTSDSVTKQIIQESRDDTRQALDAVWEEEQVKFIEDNATTCDSSPLHHYQRRFSQDAAPQYVDVSAGGPK | not soluble |
| MQITSNTRLNELWELYFQTLDKSTSWTFTKESFYNRYLKEPLGKKKLDSIQEHHIMAIIRHLQAEGMATRTVNTTLEILRPLFDFAIKNKALRDNPTRFIVLKKDNLEHHHHHH | not soluble |
| MQIVEAIYEDGVLKLLKNLKLKEHSKVIIKVIDEEEIEKILDSRDYLEHHHHHH | not soluble |
| MQIYTADGKLIGEVGEQRRIPVKLADVPQRLIDAFLATEDSRFYDHHGLDPIGIARALFVAVSNGGASQGASTITQQLARNFFLTSEKTIIRKAREAVLAVEIENTLNKQEILELYLNKIFLGYRSYGVAAAAQTYFGKSLNELTLSEMAIIAGLPKAPSTMNPLYSL | not soluble |
| MQKALETKRLTLSYGETIIIDELNLEIPKGEITIFIGSNGCGKSTLLRSLARLLKPTTGDILLDNQAIQSMQTKQIARQMAILPQGPQAPEGLTVLQLVKQGRYPYQTWLKQWSEKDEEMVQNALAATGMTEFAERDVHALSGGQRQRAWIAMTLAQDTDIILLDEPTTYLDMTHQIEVLDLLFELNETEQRTIVMVLHDLNLACRYADNIVAIQDKQIYAQGKPEEVVDEKLVRDVFRMECQISTDPLFGTPLCIPHGKGRRVRKEVAHAMR | not soluble |
| MQKDALNNVRITDEQVLMTPEQLKAAFPLSLAQEAQIAQSRGIISDIIAGRDPRLLVVCGPCSIHDPETALEYARRFKALAAEVSDSLYLVMRVYFEKPRTTVGWKGLINDPHMDGSFDVEAGLKIARQLLVELVNMGLPLATEALDPNSPQYLGDLFSWSAIGARTTESQTHREMASGLSMPVGFKNGTDGSLATAINAMRAAAQPHRFVGINQAGQVALLQTQGNPHGHVILRGGKAPNYSPADVAQCEKEMEQAGLRPSLMVDCSHGNSNKDYRRQPAVAESVVAQIKDGNRSIIGLMIESNIHEGNQSSEQPRSEMKYGVSVTDACISWEMTDALLREIHKDLSGQLAVRVA | not soluble |
| MQKHWWHKATVYQIYPKSFMDTNGDGIGDLKGITSKLDYLQKLGVMAIWLSPVYDSPMDDNGYDIANYEAIADIFGNMADMDNLLTQAKMRGIKIIMDLVVNHTSDEHAWFIEAREHPDSSERDYYIWCDQPNDLESIFGGSAWQYDDKSDQYYLHFFSKKQPDLNWENANLRQKIYDMMNFWIDKGIGGFRMDVIDMIGKIPAQHIVSNGPKLHAYLKEMNAASFGQHDLLTVGETWGATPEIAKQYSNPVNHELSMVFQFEHIGLQHKPEAPKWDYVKELNVPALKTIFNKWQTELELGQGWNSLFWNNHDLPRVLSIWGNTGKYREKSAKALAILLHLMRGTPYIYQGEEIGMTNYPFKDLNELDDIESLNYAKEAFTNGKSMETIMDSIRMIGRDNARTPMQWDASQNAGFSTADKTWLPVNPNYKDINVQAALKNSNSIFYTYQQLIQLRKENDWLVDADFELLPTADKVFAYLRKVREERYLIVVNVSDQEEVLEIDVDKQETLISNTNESAALANHKLQPWDAFCIKILEHHHHHH | soluble |
| MQKIDLGNNESLVCGVFPNQDGTFTAMTYTKSKTFKTETGARRWLEKHTVS | soluble |
| MQLKTEVFLVEKEILVYIQTKSIGIEDNSIKLKMTPLLKKFANIGDKVYLKHSTFMLPTKIKAKKEDEVLLEFPSLTPEKPLGDRRNVRVLSDPENPVKVRFNEITKEVYDISEVGFSIKCGMEEIDEILKNKEISEVEIYLPNLEEWIKGSARLVNVREFENGDILCGYELFLDTPDEVKVRFYIYERVKEILKGEK | not soluble |
| MQLNDSTLFRQQAFIDGDWRDARGGDVIPVSNPANGKPLGNVPKMGAEETRDAINAANRALPAWRALTAKERANILRRWFNLMMEHQDDLARLMTLEQGKPLAEAKGEISYAASFIEWFAEEGKRIYGDTIPGHQADKRLLVIKQPIGVTAAITPWNFPSAMITRKAGPALAAGCTMVLKPASQTPFSALALAELAQRAGIPAGVFNVVTGSAGDIGGELTSNPLVRKLSFTGSTEIGRQLMEQCAKDIKKVSLELGGNAPFIVFDDADLDKAVEGALASKFRNAGQTCVCANRLYVQDGVYDRFAEKLNQAVNKLAVGDGLQADVAIGPLIDEKAVAKVQEHIADALEKGARVITGGEAHKLGGNFFQPTILADVPDNAKVAKEETFGPLAPLFRFSDEADVIRQANDTEFGLAAYFYARDLSRVFRVGEALEYGIVGINTGIISNEVAPFGGIKASGLGREGSKYGIEDYLEIKYMCIGL | not soluble |
| MQLPPVHSVSLSEYFVSGNVIIHETAVIAPGVILEAAPDCQITIEAGVCIGLGSVISAHAGDVKIQEQTAIAPGCLVIGPVTIGATACLGSRSTVFQQDIDAQVLIPPGSLLMNRVADVQTVGASSPTTDSVTEKKSPSTANPIAPIPSPWDNEPPAKGTDSPSDQAKESIARQSRPSTAEAAEQISSNRSPGESTPTAPTVVTTAPLVSEEVQEKPPVVGQVYINQLLLTLFPERRYFSS | not soluble |
| MQLTKLTQEIFDHLYRDISEFRQTFDLPVAAPQTLNSQADTLHTSLAIEELTELAQADNKTEQADAIVDTVYVLMGRLVHLGHAKVEDNLAISYLIDLLLHVAANLNIDFLPCWDEVHSSNMSKVCRSEQEYLDTEKFYAEQGVKLMAVHQGEYIIAKCAEDFISESKTVRQGKVLKSVYYRPANLAALTQ | not soluble |
| MQMLIPQRLLLILNPILMMKRKKRKKRKKRRERETMMKIPRILKKLRRKRRTRRKRRKRRKRRRRKRRKRRRKRSPRKRRKRRNKDAFYILIISDPSRSLLFGFRKFSIIIQCLTYFSFHILFHNL | soluble |
| MQNNVVDSIIIDVLSASTHEKPLCKVITEERVLKLLDLALGVFKAQKPMVEVNAPIKVCGDIHGQFPDLLRLFHRGGWPPTANYLFLGDYVDRGRFSIETIVLLLAYKVKFPCNFFLLRGNHECEFVNKTYGFYEECQKRYQSVRMYAAFQDVFNWLPLTGLIATKILCMHGGLSPLMTKEFTLDTLRKIERPTEGKEGLVADLLWADPISGLSGFMNNQRGAGCGFGRDSVLNLCSEFQLDLVCRAHQVVQDGYEFFAGRKLVTIFSAPHYCGQFDNCAAFMSCDEKLQCSFEILRPTTGRLEIREKPLLKDETN | not soluble |
| MQNYSVSVTSDRPAPFQQITIPLADGTVLHARLWLPQTPLADRVPLVLEWIPYRQSDGTALADSMMHGYFAEQGIAAARVDIRGSGNSDGLLHDEYLKQEQDDACEVIAWFARQDWCNGNVGLIGISWGGFAGLQIAARRPPALKCIITACSTDNRYTDDVHYMGGALLSDGMQWGSGLFAQLGRPADPKHVGDRWREMWMNRLEGIKEPPLATWMQHTTYDDFWKHGSVCEDYDEIQCAVWAVGGWVDGYTDPILRLMEKLSVPKKALIGPWTHMYPTWGQPGPQIGFLQEAMRWWRHWLMDEDTGIMDEPQLTLWLGKDPKPDTRAPDIGGRWIGLP | not soluble |
| MQQLREGAPADVFISADKKNMDKALADGTVGSSVKVATNSMVMVVPQGNPGKVTSVSDLAGKTVVLCDVQVPCGTISKKLQDANGVEIKAASLESSVSDVLGKVVSGEADAGWVYRTDAAAAGNKVEVIDIPHAQEFENSLYAAVSTHSTSPDEAQKLLDLIVSPKMAQVWKDHGFSPAQ | not soluble |
| MQQNIQYTYSSDPRSGGNQNQQLHGISQFQQNSYQPTTYSNSNANNFHSSNSATFIPNSVTQTPQRRMGEEKSLVNMLDAYFIDSTTPSTSTSWNNQQPVQMSSIQQSVGSYNQQIPQLKVGDVDLQVEGMNVKLSSSPDKGEKDRVKKARQAEAARMRYHRLSNEEKRELNLKRTLAQKRKRQREKEMEELESILRETNDIQEDPDITEQLREKRMRAKWAEAARTRYARMTPEERRAHNTRRRMRQMQNAMSAIKACGMATGDPQKDDEAVRLHIKTQNAKKAEAARQRYHRMNDDEKRVYNQRRTEAFRRRRMEEEMLLAMPIGRINGEALDRAQQIVVRNAKRAEAARLRYQRMTPDQRKVAKQEPKEESWPSHEQSDTQIDHDLDLGDSYNQKRYTPKRRRNEMDDMISAGQMAVGSSGTITMGTGTPAKKDDMDALSSLERDVVKRTQHAQQILLRQRANQSSGTPRSVTPPPQAYIISNGQQQHQQLVGNQGNNGIGQHQVLHQGHMQQQQIQVSHQQSSQSIPQNIYTSGMIIQNQGQQQQGQQQQQGQSQQILNNPYRT | not soluble |
| MQRLSPGEFKTLISKERKSHFITPFALVYKTFCDLGYDQKNSDYFLNNPSEYIIAMRKNCWKEFEPFEKEFTTRMLSYLIDEERIKDMSPYDAIRDFTMEYPTHIYDLALSNTQSRRSRAGKEFESILELLMMGAGIPVDVQGAIGKSFFQKNQIGKLVDLVMPGVVQYTSNKRNTMLISAKTTLRERWQEVPEEVNRTGIREMYLATLDDSFSEETINILYEANVVVVTTVENKNFKYKNNNRVLTFEDMLQSAMELSRKWNNVSYTDSEKEEIQQSILKQIEKYSDFPYVVNYYRNRLSALFD | soluble |
| MQSAAVSGRLICNGRPAVDVKLKLYENEIFFDRLMEEGRTDSNGQFRVLGSKREITTIDPKLNVYHKCNYNGLCDQKFTIHIPKDYVTSGSQPSRTFDIGTLNLANNFPGQSTDCLN | not soluble |
| MQSRWNDTEAETFAAEARARGEPAELGLRVYSSRLIGQDPDLVLHGGGNTSVKIPSPEGMLIHVKGSGWDLGDIEAPGLPAMHLAPLLETRDVPQMSDEEMVALLRAHLLDPAAPTPSVEALLHAYMPQAFVDHTHATAILALADQADMEPVVAELFGGRVGWVPYVMPGYALSHACREAFARDPSVEGLWLEQHGLFTFAETARESYERMIGFVTMAEEHLAARGVPLPGPEANDGTAPERLAADLRAALAARGALGADPSLDFRSSPSIRSYLGRADLPELARRGTATPDHVIRLKPFPMLLEPTAGPAEIEAALDAFEAEYRAYFDRNAPNASEAKIMLDPLPRVVLVPGLGGWGVGANGKAARIAGDLLEQTSRVVNAAETYRRFTPISEGDLFDMEYWSLEQAKLRKA | not soluble |
| MQSSLSFSCGVKSTMAKSPVEVNLIPIEATPETFAEYGQVIEASRDGAGYGPNDAQLDLSKGIPRLYILRLKETPLGFFKITHHAKVTQCLGSIGGDIWYMGVAKPSLIEDDDDGRRVDTVKAKSGHLYIPPEVEEIRVFRFSGPKFVKLHRGTWHAGPLFSGSSIMDFYNLELSNTNVVDHTSHDFTKNNGVSFRFDT | not soluble |
| MQTEVKETPRYAIVASVQLPEVSDAEFEASLTELSELAKTLGFQVVQTFVQKRSSFDRTAYMGVGKLDEISMYVKRGIRADELEDEPQELDASSVAIDALLVDHEISPSQARNLELAVGCEVMDRTMVILEIFHRNARSRAARAQVEIARLGYMAPRLREAAKLAGPQGRQRSGMGGRGAGESHTELDRRKVRDRIAELQREIVAMELERKTQRARRLERQGLGLGGVSLVGYTNAGKSTLMRALTGSEVLVANKLFATLDTTVRVLHPESVPRVLVSDTVGFIKNLPHGLVASFKSTLEEALDASLLLHAIDASDPGFQRQLEVTDEVLREIGADDVPRIRVFNKIDHVGDEAEQAAWTAELRQRYPGCVVMSALRPEDVASLRAAIVAFFQQDLVEDELLLPWSAQQLRGEIYSHCQVLEERAEEEGCWFRVRGEPEKLRSLREQLNPGSQGREKEYWEALEHHHHHH | not soluble |
| MQTRATPAPAAPLERFNAAPAEEAAGTLLACLHSRAWADRLVAHRPYPDLPALLAAADEAAYDLSSDDLSEALAAETLPALPEDTYAAAHTALSAAHAAYESRFGHVFVISLDGLSPEETLNHVLAAIRSRLANDPDEERLVASEELRRLAGGRVRRLLGARGTARPATDDPHPANHTKPPPPLEHHHHHH | soluble |
